Test results taken from publication PMC4851370, “The N-Terminus of the Floral Arabidopsis TGA Transcription Factor PERIANTHIA Mediates Redox-Sensitive DNA-Binding”.
Substitutions are numbered along the chain they refer to.

T1: PANΔN (Arabidopsis thaliana, UniProt Q9SX27 167-452, del1-166)
T1 sequence: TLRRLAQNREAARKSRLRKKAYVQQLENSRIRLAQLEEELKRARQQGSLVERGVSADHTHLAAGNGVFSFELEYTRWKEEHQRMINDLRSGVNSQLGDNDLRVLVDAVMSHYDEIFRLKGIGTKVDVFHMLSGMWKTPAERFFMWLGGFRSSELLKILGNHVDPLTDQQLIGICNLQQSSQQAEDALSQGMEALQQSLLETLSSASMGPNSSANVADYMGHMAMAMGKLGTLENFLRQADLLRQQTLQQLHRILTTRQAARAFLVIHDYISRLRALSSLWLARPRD

T2: … (PAN) (Arabidopsis thaliana, UniProt Q9SX27 1-452)
T2 sequence: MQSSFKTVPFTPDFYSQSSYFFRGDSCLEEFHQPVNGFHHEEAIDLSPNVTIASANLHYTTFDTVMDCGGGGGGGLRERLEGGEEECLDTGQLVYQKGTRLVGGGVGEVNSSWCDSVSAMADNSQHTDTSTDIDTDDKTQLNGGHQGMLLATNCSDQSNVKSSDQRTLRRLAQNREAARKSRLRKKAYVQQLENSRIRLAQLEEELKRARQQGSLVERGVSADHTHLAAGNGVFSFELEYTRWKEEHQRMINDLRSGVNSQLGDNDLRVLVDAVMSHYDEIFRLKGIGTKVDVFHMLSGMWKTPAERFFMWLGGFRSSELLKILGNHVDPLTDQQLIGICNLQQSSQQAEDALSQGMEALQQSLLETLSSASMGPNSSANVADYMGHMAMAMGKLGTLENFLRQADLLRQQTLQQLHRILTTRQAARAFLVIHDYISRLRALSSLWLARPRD

T3: PANC68SC87S (Arabidopsis thaliana, UniProt Q9SX27 1-452, C68S;C87S)
T3 sequence: T2 sequence with C68S, C87S

T4: TGA3 (Arabidopsis thaliana, UniProt Q39234 1-384)
T4 sequence: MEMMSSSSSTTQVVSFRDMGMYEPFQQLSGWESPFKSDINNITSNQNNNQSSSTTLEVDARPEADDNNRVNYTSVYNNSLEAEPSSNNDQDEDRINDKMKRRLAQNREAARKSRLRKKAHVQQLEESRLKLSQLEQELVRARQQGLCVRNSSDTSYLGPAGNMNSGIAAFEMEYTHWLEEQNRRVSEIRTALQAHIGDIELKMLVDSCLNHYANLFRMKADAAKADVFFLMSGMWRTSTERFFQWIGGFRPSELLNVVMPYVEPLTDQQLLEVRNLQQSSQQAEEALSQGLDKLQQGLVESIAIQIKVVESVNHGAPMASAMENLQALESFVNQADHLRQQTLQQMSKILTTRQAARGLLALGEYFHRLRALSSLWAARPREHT

T5: TGA10 (Arabidopsis thaliana, UniProt E3VNM4 1-460)
T5 sequence: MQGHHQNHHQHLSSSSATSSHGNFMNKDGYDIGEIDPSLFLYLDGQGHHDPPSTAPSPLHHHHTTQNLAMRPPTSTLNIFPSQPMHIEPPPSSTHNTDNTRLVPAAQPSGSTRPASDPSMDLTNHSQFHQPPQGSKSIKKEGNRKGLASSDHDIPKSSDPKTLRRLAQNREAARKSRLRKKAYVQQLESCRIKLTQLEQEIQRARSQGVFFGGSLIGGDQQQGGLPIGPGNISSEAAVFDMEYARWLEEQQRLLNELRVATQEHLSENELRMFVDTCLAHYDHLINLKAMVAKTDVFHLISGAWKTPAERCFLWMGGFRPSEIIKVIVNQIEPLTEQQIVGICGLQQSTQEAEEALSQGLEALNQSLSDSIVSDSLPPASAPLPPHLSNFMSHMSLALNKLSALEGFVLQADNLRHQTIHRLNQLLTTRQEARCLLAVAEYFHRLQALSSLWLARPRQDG

T6: TGA1 (Arabidopsis thaliana, UniProt Q39237 1-368)
T6 sequence: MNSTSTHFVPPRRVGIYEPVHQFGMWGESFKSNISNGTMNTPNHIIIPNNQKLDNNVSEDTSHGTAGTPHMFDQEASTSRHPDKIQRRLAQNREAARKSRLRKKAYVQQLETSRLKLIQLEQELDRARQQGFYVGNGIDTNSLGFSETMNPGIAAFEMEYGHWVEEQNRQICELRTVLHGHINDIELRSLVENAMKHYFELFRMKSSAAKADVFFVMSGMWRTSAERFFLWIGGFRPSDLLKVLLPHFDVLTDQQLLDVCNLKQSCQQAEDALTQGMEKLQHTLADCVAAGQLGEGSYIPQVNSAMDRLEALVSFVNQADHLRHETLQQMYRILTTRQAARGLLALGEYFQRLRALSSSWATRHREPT

T7: TGA2 (Arabidopsis thaliana, UniProt P43273 1-330)
T7 sequence: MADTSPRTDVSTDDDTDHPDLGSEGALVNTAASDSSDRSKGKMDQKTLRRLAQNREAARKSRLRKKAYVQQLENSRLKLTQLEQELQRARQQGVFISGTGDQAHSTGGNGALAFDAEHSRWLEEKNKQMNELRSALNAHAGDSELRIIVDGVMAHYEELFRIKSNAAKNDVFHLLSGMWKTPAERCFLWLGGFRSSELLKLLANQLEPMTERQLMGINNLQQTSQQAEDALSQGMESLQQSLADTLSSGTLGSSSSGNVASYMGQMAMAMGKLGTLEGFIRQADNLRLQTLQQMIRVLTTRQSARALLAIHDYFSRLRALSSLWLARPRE

T8: PANC27SC68SC87SC114SC154S (Arabidopsis thaliana, UniProt Q9SX27 1-452, C27S;C68S;C87S;C114S;C154S)
T8 sequence: T2 sequence with C27S, C68S, C87S, C114S, C154S

T9: PANC27SC68SC87SC114SC154SC340S (PAN6xCysmut) (Arabidopsis thaliana, UniProt Q9SX27 1-452, C27S;C68S;C87S;C114S;C154S;C340S)
T9 sequence: T2 sequence with C27S, C68S, C87S, C114S, C154S, C340S

B1: AAGAAT (dsDNA)
DNA 1: AAGAATCTTTGATCACGTCATCACTCAGATATT
DNA 2: AATATCTGAGTGATGACGTGATCAAAGATTCTT
B2: ΔbZIP (dsDNA)
DNA 1: B1 DNA 1 with C16A, G17A
DNA 2: B1 DNA 2 with C17T, G18T

What was measured:
Details in all cases: protein: ivt; tags: none; chain copies: 2; label: 5' 32P; blunt
PANΔN = biological target: T1, PANΔN; assay: EMSA; 2 mM diamide; no reduction; EMSA as in cited ref 20 (buffer, salt, pH, temperature not given); with or without 0.9 or 20 mM DTT or 2 mM diamide, 30 min in the dark before probe addition
… (PAN) = biological target: T2, … (PAN); assay: EMSA; EMSA as in cited ref 20 (buffer, salt, pH, temperature not given); with or without 0.9 or 20 mM DTT or 2 mM diamide, 30 min in the dark before probe addition
PANC68SC87S = biological target: T3, PANC68SC87S; assay: EMSA; 0.9 mM DTT; EMSA as in cited ref 20 (buffer, salt, pH, temperature not given); with or without 0.9 or 20 mM DTT or 2 mM diamide, 30 min in the dark before probe addition
TGA3 = biological target: T4, TGA3; assay: as above
TGA10 = biological target: T5, TGA10; assay: as above
TGA1 = biological target: T6, TGA1; assay: as above
TGA2 = biological target: T7, TGA2; assay: as above
[1] = biological target: T8, PANC27SC68SC87SC114SC154S; assay: EMSA; 2 mM diamide; no inhibition; EMSA as in cited ref 20 (buffer, salt, pH, temperature not given); with or without 0.9 or 20 mM DTT or 2 mM diamide, 30 min in the dark before probe addition
[2] = biological target: T9, PANC27SC68SC87SC114SC154SC340S …; assay: as above

Binder | binding result (PANΔN) | binding result (… (PAN)) | binding result (PANC68SC87S) | binding result (TGA3) | binding result (TGA10) | binding result (TGA1) | binding result (TGA2) | binding result [1] | binding result [2]
B1 | binds | binds | binds | binds | binds | binds | binds | binds | binds
B2 |  | no binding |  |  |  |  |  |  | 
